Data as given in CN114829399A (dated 2022).

T1: 人FLT3/FLK2受体蛋白 (human, UniProt P36888 27-993)
T1 construct: whole, on cells; Always presented on cells (REH/Reh endogenous); also called CD135; 人酪氨酸激酶受体FLT3/FLK2受体蛋白
T1 sequence (looked up): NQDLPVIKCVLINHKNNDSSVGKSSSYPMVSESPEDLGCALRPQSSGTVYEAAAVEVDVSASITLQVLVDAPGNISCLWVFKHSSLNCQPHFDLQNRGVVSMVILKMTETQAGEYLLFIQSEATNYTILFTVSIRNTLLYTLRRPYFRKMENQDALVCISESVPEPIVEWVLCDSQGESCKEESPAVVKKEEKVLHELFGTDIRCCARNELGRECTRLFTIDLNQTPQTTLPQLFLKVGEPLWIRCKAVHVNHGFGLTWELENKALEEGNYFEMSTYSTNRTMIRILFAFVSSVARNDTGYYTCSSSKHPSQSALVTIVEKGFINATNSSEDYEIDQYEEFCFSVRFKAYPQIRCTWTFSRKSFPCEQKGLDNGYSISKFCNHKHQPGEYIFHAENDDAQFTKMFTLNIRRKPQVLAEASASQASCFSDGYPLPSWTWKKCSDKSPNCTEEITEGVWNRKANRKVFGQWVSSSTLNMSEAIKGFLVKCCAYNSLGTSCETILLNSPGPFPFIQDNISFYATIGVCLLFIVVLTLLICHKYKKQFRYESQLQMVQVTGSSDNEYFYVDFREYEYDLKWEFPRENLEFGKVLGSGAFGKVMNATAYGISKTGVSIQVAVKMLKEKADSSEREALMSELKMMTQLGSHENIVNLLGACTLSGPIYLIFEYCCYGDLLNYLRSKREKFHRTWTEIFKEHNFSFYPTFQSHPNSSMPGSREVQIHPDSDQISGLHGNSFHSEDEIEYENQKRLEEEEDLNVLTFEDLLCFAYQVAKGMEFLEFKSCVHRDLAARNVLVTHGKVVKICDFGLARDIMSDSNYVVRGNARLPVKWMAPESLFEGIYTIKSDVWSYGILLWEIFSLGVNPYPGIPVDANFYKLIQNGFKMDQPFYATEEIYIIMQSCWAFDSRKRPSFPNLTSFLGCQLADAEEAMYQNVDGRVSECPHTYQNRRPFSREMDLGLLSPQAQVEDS

B1: MHC1693 - 3-16HA (antibody, V domains shown)
VH: EVQLQQSGAELVRPGALVKLSCKGSGFNIKDYYIHWVKQRPEQGLEWIGRIDPENDITMYDPKFQGKASITADTSSNTAYLQLSSLTSEDTAVYYCARNGNFFAYWGQGTLVTVSA
VL: not shown
notes: Mouse monoclonal from hybridoma; Entries are called 'light chain' and 'heavy chain'; also called Ab3-16HA
B2: MHC1694 - 1-18BA (antibody, V domains shown)
VH: QVTLKESGPGILQPSQTLSLTCSFSGFSLSTSTMGVGWIRQPSGKGLEWLLHILWNDSKYYNPALKSRLTISKDTYNKQVFLKIANVDTADTATYYCARIVYYSTYVGYFDVWGAGTTVTVSS
VL: DIQMTQSPSSLSASLGERVSLTCRASQEISGYLSWLQQKPDGTIKRLIYAASTLHSGVPKRFSGSRSGSDYSLTISRLESEDVADYYCLQYASYPFTFGSGTKLEIR
notes: Mouse monoclonal from hybridoma; Entries are called 'light chain' and 'heavy chain'; also called Ab1-18New
B3: MHC1692 - 1-23DA (antibody, V domains shown)
VH: B2 VH
VL: B2 VL
notes: Mouse monoclonal from hybridoma; also called Ab1-23DA

Biological target: T1, 人FLT3/FLK2受体蛋白
Experiment: flow cytometry EC curve on REH cells

Binder	binding result
B1	binds
B2	binds
B3	binds
